Results from patent publication US20190382481A1 (Janssen / Centocor, published 2019).

B1: C3CB103 (bispecific antibody, human IgG4 S228P, lambda, F234A L235A)
heavy 1: not shown
light 1: SYELTQPPSVSVSPGQTASITCSGDKLGDKYACWYQQKPGQSPVLVIYQDGKRPSGIPERFSGSNFGNKATLTISGTQAMDEADYYCQAWDRNTVVFGGGTKLTVLGQPKAAPSVTLFPPSSEELQANKATLVCLISDFYPGAVTVAWKADSSPVKAGVETTTPSKQSNNKYAASSYLSLTPEQWKSHRSYSCQVTHEGSTVEKTVAPTECS
heavy 2: QVQLQQSGPRLVRPSQTLSLTCAISGDSVFNNNAAWSWIRQSPSRGLEWLGRTYYRSKWLYDYAVSVKSRITVNPDTSRNQFTLQLNSVTPEDTALYYCARGYSSSFDYWGQGTLVTVSSASTKGPSVFPLAPCSRSTSESTAALGCLVKDYFPEPVTVSWNSGALTSGVHTFPAVLQSSGLYSLSSVVTVPSSSLGTKTYTCNVDHKPSNTKVDKRVESKYGPPCPPCPAPEAAGGPSVFLFPPKPKDTLMISRTPEVTCVVVDVSQEDPEVQFNWYVDGVEVHNAKTKPREEQFNSTYRVVSVLTVLHQDWLNGKEYKCKVSNKGLPSSIEKTISKAKGQPREPQVYTLPPSQEEMTKNQVSLTCLVKGFYPSDIAVEWESNGQPENNYKTTPPVLDSDGSFLLYSKLTVDKSRWQEGNVFSCSVMHEALHNHYTQKSLSLSLGK
light 2: QSALTQPASVSGSPGQSITISCTGTSSNIGTYKFVSWYQQHPDKAPKVLLYEVSKRPSGVSSRFSGSKSGNTASLTISGLQAEDQADYHCVSYAGSGTLLFGGGTKLTVLGQPKAAPSVTLFPPSSEELQANKATLVCLISDFYPGAVTVAWKADSSPVKAGVETTTPSKQSNNKYAASSYLSLTPEQWKSHRSYSCQVTHEGSTVEKTVAPTECS
B2: C3CB102 (bispecific antibody, human IgG4 S228P, lambda, F234A L235A)
heavy 1: not shown
light 1: SYELTQPPSVSVSPGQTASITCSGNKLGAKFASWYQQKPGQSPVLVIYQDNKRPSGIPERFSGSNSGNTATLTISGTQAVDEADYYCQAWDSSTVVFGGGTKLTVLGQPKAAPSVTLFPPSSEELQANKATLVCLISDFYPGAVTVAWKADSSPVKAGVETTTPSKQSNNKYAASSYLSLTPEQWKSHRSYSCQVTHEGSTVEKTVAPTECS
heavy 2: QVQLQQSGPRLVRPSQTLSLTCAISGDSVFNNNAAWSWIRQSPSRGLEWLGRTYYRSKWLYDYAVSVKSRITVNPDTSRNQFTLQLNSVTPEDTALYYCARGYSSSFDYWGQGTLVTVSSASTKGPSVFPLAPCSRSTSESTAALGCLVKDYFPEPVTVSWNSGALTSGVHTFPAVLQSSGLYSLSSVVTVPSSSLGTKTYTCNVDHKPSNTKVDKRVESKYGPPCPPCPAPEAAGGPSVFLFPPKPKDTLMISRTPEVTCVVVDVSQEDPEVQFNWYVDGVEVHNAKTKPREEQFNSTYRVVSVLTVLHQDWLNGKEYKCKVSNKGLPSSIEKTISKAKGQPREPQVYTLPPSQEEMTKNQVSLTCLVKGFYPSDIAVEWESNGQPENNYKTTPPVLDSDGSFLLYSKLTVDKSRWQEGNVFSCSVMHEALHNHYTQKSLSLSLGK
light 2: QSALTQPASVSGSPGQSITISCTGTSSNIGTYKFVSWYQQHPDKAPKVLLYEVSKRPSGVSSRFSGSKSGNTASLTISGLQAEDQADYHCVSYAGSGTLLFGGGTKLTVLGQPKAAPSVTLFPPSSEELQANKATLVCLISDFYPGAVTVAWKADSSPVKAGVETTTPSKQSNNKYAASSYLSLTPEQWKSHRSYSCQVTHEGSTVEKTVAPTECS
B3: C3CB87 (bispecific antibody, human IgG4 S228P, kappa, lambda, F234A L235A)
heavy 1: not shown
light 1: not shown
heavy 2: EVQLVESGGGLVQPGGSLRLSCAASGFTFNTYAMNWVRQAPGKGLEWVARIRSKYNNYATYYAASVKGRFTISRDDSKNSLYLQMNSLKTEDTAVYYCARHGNFGNSYVSWFAYWGQGTLVTVSSASTKGPSVFPLAPCSRSTSESTAALGCLVKDYFPEPVTVSWNSGALTSGVHTFPAVLQSSGLYSLSSVVTVPSSSLGTKTYTCNVDHKPSNTKVDKRVESKYGPPCPPCPAPEAAGGPSVFLFPPKPKDTLMISRTPEVTCVVVDVSQEDPEVQFNWYVDGVEVHNAKTKPREEQFNSTYRVVSVLTVLHQDWLNGKEYKCKVSNKGLPSSIEKTISKAKGQPREPQVYTLPPSQEEMTKNQVSLTCLVKGFYPSDIAVEWESNGQPENNYKTTPPVLDSDGSFLLYSKLTVDKSRWQEGNVFSCSVMHEALHNHYTQKSLSLSLGK
light 2: QTVVTQEPSLTVSPGGTVTLTCRSSTGAVTTSNYANWVQQKPGQAPRGLIGGTNKRAPGTPARFSGSLLGGKAALTLSGVQPEDEAEYYCALWYSNLWVFGGGTKLTVLGQPKAAPSVTLFPPSSEELQANKATLVCLISDFYPGAVTVAWKADSSPVKAGVETTTPSKQSNNKYAASSYLSLTPEQWKSHRSYSCQVTHEGSTVEKTVAPTECS
B4: C3CB89 (bispecific antibody, human IgG4 S228P, kappa, lambda, F234A L235A)
heavy 1: not shown
light 1: not shown
heavy 2: EVQLVESGGGLVQPGGSLRLSCAASGFTFNTYAMNWVRQAPGKGLEWVARIRSKYNNYATYYAASVKGRFTISRDDSKNSLYLQMNSLKTEDTAVYYCARHGNFGNSYVSWFAYWGQGTLVTVSSASTKGPSVFPLAPCSRSTSESTAALGCLVKDYFPEPVTVSWNSGALTSGVHTFPAVLQSSGLYSLSSVVTVPSSSLGTKTYTCNVDHKPSNTKVDKRVESKYGPPCPPCPAPEAAGGPSVFLFPPKPKDTLMISRTPEVTCVVVDVSQEDPEVQFNWYVDGVEVHNAKTKPREEQFNSTYRVVSVLTVLHQDWLNGKEYKCKVSNKGLPSSIEKTISKAKGQPREPQVYTLPPSQEEMTKNQVSLTCLVKGFYPSDIAVEWESNGQPENNYKTTPPVLDSDGSFLLYSKLTVDKSRWQEGNVFSCSVMHEALHNHYTQKSLSLSLGK
light 2: QTVVTQEPSLTVSPGGTVTLTCRSSTGAVTTSNYANWVQQKPGQAPRGLIGGTNKRAPGTPARFSGSLLGGKAALTLSGVQPEDEAEYYCALWYSNLWVFGGGTKLTVLGQPKAAPSVTLFPPSSEELQANKATLVCLISDFYPGAVTVAWKADSSPVKAGVETTTPSKQSNNKYAASSYLSLTPEQWKSHRSYSCQVTHEGSTVEKTVAPTECS
B5: C3CB11 (bispecific antibody, human IgG4 S228P, lambda, F234A L235A)
heavy 1: not shown
light 1: SYELTQPPSVSVSPGQTASITCSGDKLGDKYACWYQQKPGQSPVLVIYQDGKRPSGIPERFSGSNFGNKATLTISGTQAMDEADYYCQAWDRNTVVFGGGTKLTVLGQPKAAPSVTLFPPSSEELQANKATLVCLISDFYPGAVTVAWKADSSPVKAGVETTTPSKQSNNKYAASSYLSLTPEQWKSHRSYSCQVTHEGSTVEKTVAPTECS
heavy 2: EVQLVESGGGLVQPGGSLRLSCAASGFTFNTYAMNWVRQAPGKGLEWVARIRSKYNNYATYYAASVKGRFTISRDDSKNSLYLQMNSLKTEDTAVYYCARHGNFGNSYVSWFAYWGQGTLVTVSSASTKGPSVFPLAPCSRSTSESTAALGCLVKDYFPEPVTVSWNSGALTSGVHTFPAVLQSSGLYSLSSVVTVPSSSLGTKTYTCNVDHKPSNTKVDKRVESKYGPPCPPCPAPEAAGGPSVFLFPPKPKDTLMISRTPEVTCVVVDVSQEDPEVQFNWYVDGVEVHNAKTKPREEQFNSTYRVVSVLTVLHQDWLNGKEYKCKVSNKGLPSSIEKTISKAKGQPREPQVYTLPPSQEEMTKNQVSLTCLVKGFYPSDIAVEWESNGQPENNYKTTPPVLDSDGSFLLYSKLTVDKSRWQEGNVFSCSVMHEALHNHYTQKSLSLSLGK
light 2: QTVVTQEPSLTVSPGGTVTLTCRSSTGAVTTSNYANWVQQKPGQAPRGLIGGTNKRAPGTPARFSGSLLGGKAALTLSGVQPEDEAEYYCALWYSNLWVFGGGTKLTVLGQPKAAPSVTLFPPSSEELQANKATLVCLISDFYPGAVTVAWKADSSPVKAGVETTTPSKQSNNKYAASSYLSLTPEQWKSHRSYSCQVTHEGSTVEKTVAPTECS
B6: C3CB90 (bispecific antibody, human IgG4 S228P, lambda, F234A L235A)
heavy 1: not shown
light 1: SYELTQPPSVSVSPGQTASITCSGDELGDMYACWYQQKPGQSPLVVIYQDSKRPSGIPERFSGSNSGNTATLTISGTQAMDEAAYYCQTWDTRIAVFGGGTNLTVLGQPKAAPSVTLFPPSSEELQANKATLVCLISDFYPGAVTVAWKADSSPVKAGVETTTPSKQSNNKYAASSYLSLTPEQWKSHRSYSCQVTHEGSTVEKTVAPTECS
heavy 2: EVQLVESGGGLVQPGGSLRLSCAASGFTFNTYAMNWVRQAPGKGLEWVARIRSKYNNYATYYAASVKGRFTISRDDSKNSLYLQMNSLKTEDTAVYYCARHGNFGNSYVSWFAYWGQGTLVTVSSASTKGPSVFPLAPCSRSTSESTAALGCLVKDYFPEPVTVSWNSGALTSGVHTFPAVLQSSGLYSLSSVVTVPSSSLGTKTYTCNVDHKPSNTKVDKRVESKYGPPCPPCPAPEAAGGPSVFLFPPKPKDTLMISRTPEVTCVVVDVSQEDPEVQFNWYVDGVEVHNAKTKPREEQFNSTYRVVSVLTVLHQDWLNGKEYKCKVSNKGLPSSIEKTISKAKGQPREPQVYTLPPSQEEMTKNQVSLTCLVKGFYPSDIAVEWESNGQPENNYKTTPPVLDSDGSFLLYSKLTVDKSRWQEGNVFSCSVMHEALHNHYTQKSLSLSLGK
light 2: QTVVTQEPSLTVSPGGTVTLTCRSSTGAVTTSNYANWVQQKPGQAPRGLIGGTNKRAPGTPARFSGSLLGGKAALTLSGVQPEDEAEYYCALWYSNLWVFGGGTKLTVLGQPKAAPSVTLFPPSSEELQANKATLVCLISDFYPGAVTVAWKADSSPVKAGVETTTPSKQSNNKYAASSYLSLTPEQWKSHRSYSCQVTHEGSTVEKTVAPTECS
B7: C3CB91 (bispecific antibody, human IgG4 S228P, lambda, F234A L235A)
heavy 1: not shown
light 1: SYELTQPPSVSVSPGQTASITCSGDNLGNEHVCWYHQKPGQSPVLVIYQNNKRPSGIPERFSGSNSGNTATLSISGTQATDEADYYCQAWDSTTAVFGGGTKLTVLGQPKAAPSVTLFPPSSEELQANKATLVCLISDFYPGAVTVAWKADSSPVKAGVETTTPSKQSNNKYAASSYLSLTPEQWKSHRSYSCQVTHEGSTVEKTVAPTECS
heavy 2: EVQLVESGGGLVQPGGSLRLSCAASGFTFNTYAMNWVRQAPGKGLEWVARIRSKYNNYATYYAASVKGRFTISRDDSKNSLYLQMNSLKTEDTAVYYCARHGNFGNSYVSWFAYWGQGTLVTVSSASTKGPSVFPLAPCSRSTSESTAALGCLVKDYFPEPVTVSWNSGALTSGVHTFPAVLQSSGLYSLSSVVTVPSSSLGTKTYTCNVDHKPSNTKVDKRVESKYGPPCPPCPAPEAAGGPSVFLFPPKPKDTLMISRTPEVTCVVVDVSQEDPEVQFNWYVDGVEVHNAKTKPREEQFNSTYRVVSVLTVLHQDWLNGKEYKCKVSNKGLPSSIEKTISKAKGQPREPQVYTLPPSQEEMTKNQVSLTCLVKGFYPSDIAVEWESNGQPENNYKTTPPVLDSDGSFLLYSKLTVDKSRWQEGNVFSCSVMHEALHNHYTQKSLSLSLGK
light 2: QTVVTQEPSLTVSPGGTVTLTCRSSTGAVTTSNYANWVQQKPGQAPRGLIGGTNKRAPGTPARFSGSLLGGKAALTLSGVQPEDEAEYYCALWYSNLWVFGGGTKLTVLGQPKAAPSVTLFPPSSEELQANKATLVCLISDFYPGAVTVAWKADSSPVKAGVETTTPSKQSNNKYAASSYLSLTPEQWKSHRSYSCQVTHEGSTVEKTVAPTECS

Assays:
human CD33 [1] = target: T1, human CD33 (human, UniProt P20138 18-364); assay: cell-based or functional assay
human CD33 [2] = target: T1, human CD33; assay: cell-based or functional assay; remark: listed apart in the source

T1 sequence (P20138 18-364 limits assumed): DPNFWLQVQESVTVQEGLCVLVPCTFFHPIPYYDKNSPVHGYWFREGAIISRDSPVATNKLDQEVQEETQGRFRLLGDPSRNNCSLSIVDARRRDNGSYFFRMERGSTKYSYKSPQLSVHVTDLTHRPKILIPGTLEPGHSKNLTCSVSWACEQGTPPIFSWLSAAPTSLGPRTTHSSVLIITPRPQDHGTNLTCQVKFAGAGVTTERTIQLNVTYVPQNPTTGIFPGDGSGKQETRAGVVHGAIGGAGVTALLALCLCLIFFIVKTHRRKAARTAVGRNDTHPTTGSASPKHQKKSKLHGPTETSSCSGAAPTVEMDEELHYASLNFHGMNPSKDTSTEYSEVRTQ

Binder | Primary AML Cell Killing EC50 (nM), ex vivo AML patient whole blood (human CD33 [1]) | Cytotoxicity EC50 (nM), T-cell mediated cytotoxicity of MOLM-13 (human CD33 [2])
B1 | 4.19 nM | –
B2 | 4.97 nM | –
B3 | – | 0.067 nM
B4 | – | 0.41 nM
B5 | 3.96 nM | –
B6 | – | 10.6 nM
B7 | – | 0.35 nM
